# According to patent US20110229461A1 (UCB, published 2011):
# Target: T1, human PD-1 on cells (transfected HEK293 cells; human T cells) (human, UniProt Q15116 25-288)
# T1 construct: whole, on cells; HEK293 cells transiently transfected with human PD-1 DNA; also called PD-1 expressing HEK293 cells; PD-1 transfected HEK cells
# Assay: flow cytometry on activated human T cells
# T1 sequence (Q15116 25-288): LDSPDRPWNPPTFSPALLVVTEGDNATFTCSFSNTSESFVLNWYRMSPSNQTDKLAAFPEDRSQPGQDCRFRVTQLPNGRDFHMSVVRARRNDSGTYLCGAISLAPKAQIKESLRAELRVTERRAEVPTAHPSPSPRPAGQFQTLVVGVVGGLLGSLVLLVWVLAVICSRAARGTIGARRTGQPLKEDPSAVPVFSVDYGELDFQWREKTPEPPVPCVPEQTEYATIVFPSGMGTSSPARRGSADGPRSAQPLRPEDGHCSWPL
row,EC50,Binder
1,3.15 µg/mL,"949 VK1 gL15 gH8a (antibody, V domains shown, Humanised; human kappa constant (Km3); also called Transient #2) VH: EVQLVQSGAEVKKPGASVKVSCKAFGYTFTTYPIEWMRQAHGQGLEWIGNFHPYNDDTKYNEKFKGRVTMTRDTSTSTVYMELSSLRSEDTAVYYCARENYGSHGGFVYWGQGTLVTVS VL: ENVLTQSPFSLSASVGDRVTITCRASSSVISSYLHWYQQKPAKAPKLFIYSTSNLASGVPSRFSGSGSGTDYTLTISSLQPEDFATYYCQQYNSYPLTFGGGTKVEIK"
2,1.14 µg/mL,"949 VK1 gL9 gH20b (antibody, V domains shown, Humanised; human kappa constant (Km3); also called Transient #1) VH: EVQLVQSGAEVKKPGSSVKVSCKASGYTFTTYPIEWVRQAPGQGLEWMGNFHPYNDDTKYNEKFKGRVTITADKSTSTAYMELSSLRSEDTAVYYCARENYGSHGGFVYWGQGTLVTVS VL: ENVLTQSPFSLSASVGDRVTITCRASSSVISSYLHWYQQKPAKAPKLFIYSTSNLASGVPSRFSGSGSGTDYTLTISSLQPEDFATYYCQQYNGYPLTFGGGTKVEIK"
3,4.1 µg/mL,"949 VK1 gL15 gH20b (antibody, V domains shown, Humanised; also called Transient #5) VH: EVQLVQSGAEVKKPGSSVKVSCKASGYTFTTYPIEWVRQAPGQGLEWMGNFHPYNDDTKYNEKFKGRVTITADKSTSTAYMELSSLRSEDTAVYYCARENYGSHGGFVYWGQGTLVTVS VL: ENVLTQSPFSLSASVGDRVTITCRASSSVISSYLHWYQQKPAKAPKLFIYSTSNLASGVPSRFSGSGSGTDYTLTISSLQPEDFATYYCQQYNSYPLTFGGGTKVEIK"
4,2.89 µg/mL,"949 VK1 gL15 gH20a (antibody, V domains shown, Humanised; human kappa constant (Km3); also called Transient #4) VH: EVQLVQSGAEVKKPGASVKVSCKAFGYTFTTYPIEWVRQAPGQGLEWMGNFHPYNDDTKYNEKFKGRVTMTRDTSTSTVYMELSSLRSEDTAVYYCARENYGSHGGFVYWGQGTLVTVS VL: ENVLTQSPFSLSASVGDRVTITCRASSSVISSYLHWYQQKPAKAPKLFIYSTSNLASGVPSRFSGSGSGTDYTLTISSLQPEDFATYYCQQYNSYPLTFGGGTKVEIK"
5,6.09 µg/mL,"949 VK1 gL15 gH8b (antibody, V domains shown, Humanised; human kappa constant (Km3); also called Transient #3) VH: EVQLVQSGAEVKKPGSSVKVSCKAFGYTFTTYPIEWMRQAHGQGLEWIGNFHPYNDDTKYNEKFKGRVTITADKSTSTAYMELSSLRSEDTAVYYCARENYGSHGGFVYWGQGTLVTVS VL: ENVLTQSPFSLSASVGDRVTITCRASSSVISSYLHWYQQKPAKAPKLFIYSTSNLASGVPSRFSGSGSGTDYTLTISSLQPEDFATYYCQQYNSYPLTFGGGTKVEIK"

# Target: T2, human PD-1 (recombinant, titrated in BIAcore) (human, UniProt Q15116 25-170)
# T2 construct: extracellular domain; also called recombinant human PD-1 extracellular domain
# T2 sequence (Q15116 25-170): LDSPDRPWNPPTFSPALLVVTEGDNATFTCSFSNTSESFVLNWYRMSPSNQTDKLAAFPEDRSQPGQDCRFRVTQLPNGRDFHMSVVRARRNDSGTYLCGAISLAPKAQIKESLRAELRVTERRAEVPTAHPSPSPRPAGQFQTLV
# Assay: SPR BIAcore 3000; antibody captured by anti-human Fc, human PD-1 titrated;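 also: CM5 chip with amine-coupled goat anti-human Fc F(ab′)₂, HBS-EP running buffer at 10 µL/min, blank-surface-subtracted sensorgrams fitted in BIAevaluation 3.2 for kinetic constants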
Kd,koff,kon,Binder
5.07 nM,,,"antibody CA051-00949 (949), parental variable regions, murine IgG1 (antibody, V domains shown, also called Clone 19) VH: QVQLQQSGAELVKPGASVKMSCKAFGYTFTTYPIEWMKQNHGKSLEWIGNFHPYNDDTKYNEKFKGKAKLTVEKSSTTVYLELSRLTSDDSAVYYCARENYGSHGGFVYWGQGTLVTVS VL: ENVLTQSPAIMSASPGEKVTMTCRASSSVISSYLHWYQQKSGASPKLWIYSTSNLASGVPDRFSGSGSGTSYSLTISSVEAEDAATYYCQQYNGYPLTFGAGTKLEIK"
2.35 nM,,,"949 VK1 gL9 gH8a (antibody, V domains shown, Humanised; human kappa constant (Km3)) VH: EVQLVQSGAEVKKPGASVKVSCKAFGYTFTTYPIEWMRQAHGQGLEWIGNFHPYNDDTKYNEKFKGRVTMTRDTSTSTVYMELSSLRSEDTAVYYCARENYGSHGGFVYWGQGTLVTVS VL: ENVLTQSPFSLSASVGDRVTITCRASSSVISSYLHWYQQKPAKAPKLFIYSTSNLASGVPSRFSGSGSGTDYTLTISSLQPEDFATYYCQQYNGYPLTFGGGTKVEIK"
2.34 nM,,,"949 VK1 gL9 gH8b (antibody, V domains shown, Humanised; human kappa constant (Km3)) VH: EVQLVQSGAEVKKPGSSVKVSCKAFGYTFTTYPIEWMRQAHGQGLEWIGNFHPYNDDTKYNEKFKGRVTITADKSTSTAYMELSSLRSEDTAVYYCARENYGSHGGFVYWGQGTLVTVS VL: ENVLTQSPFSLSASVGDRVTITCRASSSVISSYLHWYQQKPAKAPKLFIYSTSNLASGVPSRFSGSGSGTDYTLTISSLQPEDFATYYCQQYNGYPLTFGGGTKVEIK"
4.02 nM,0.000844 s⁻¹,210000 M⁻¹ s⁻¹,"949 VK3 gL1 gH1a (antibody, V domains shown, Humanised; human kappa constant (Km3)) VH: EVQLVQSGAEVKKPGASVKVSCKAFGYTFTTYPIEWMRQAHGQGLEWIGNFHPYNDDTKYNEKFKGRVTMTVDKSTTTVYMELSSLRSEDTAVYYCARENYGSHGGFVYWGQGTLVTVS VL: ENVLTQSPGTLSLSPGERATLSCRASSSVISSYLHWYQQKPGQAPRLWIYSTSNLASGVPDRFSGSGSGTSYTLTISRLEPEDFATYYCQQYNGYPLTFGGGTKVEIK"
2.46 nM,,,"949 VK1 gL12 gH8a (antibody, V domains shown, Humanised; human kappa constant (Km3)) VH: EVQLVQSGAEVKKPGASVKVSCKAFGYTFTTYPIEWMRQAHGQGLEWIGNFHPYNDDTKYNEKFKGRVTMTRDTSTSTVYMELSSLRSEDTAVYYCARENYGSHGGFVYWGQGTLVTVS VL: ENVMTQSPFSLSASVGDRVTITCRASSSVISSYLHWYQQKPAKAPKLFIYSTSNLASGVPSRFSGSGSGTDYTLTISSLQPEDFATYYCQQYNGYPLTFGGGTKVEIK"
3.17 nM,,,"949 VK1 gL9 gH20a (antibody, V domains shown, Humanised; human kappa constant (Km3)) VH: EVQLVQSGAEVKKPGASVKVSCKAFGYTFTTYPIEWVRQAPGQGLEWMGNFHPYNDDTKYNEKFKGRVTMTRDTSTSTVYMELSSLRSEDTAVYYCARENYGSHGGFVYWGQGTLVTVS VL: ENVLTQSPFSLSASVGDRVTITCRASSSVISSYLHWYQQKPAKAPKLFIYSTSNLASGVPSRFSGSGSGTDYTLTISSLQPEDFATYYCQQYNGYPLTFGGGTKVEIK"
4.89 nM,0.00109 s⁻¹,223000 M⁻¹ s⁻¹,"949 VK3 gL11 gH1a (antibody, V domains shown, Humanised; human kappa constant (Km3)) VH: EVQLVQSGAEVKKPGASVKVSCKAFGYTFTTYPIEWMRQAHGQGLEWIGNFHPYNDDTKYNEKFKGRVTMTVDKSTTTVYMELSSLRSEDTAVYYCARENYGSHGGFVYWGQGTLVTVS VL: ENVLTQSPGTLSLSPGERATLSCRASSSVISSYLHWYQQKPGQAPRLWIYSTSNLASGVPDRFSGSGSGTSYTLTISRLEPEDFATYYCQQYNSYPLTFGGGTKVEIK"
5.54 nM,0.00115 s⁻¹,207000 M⁻¹ s⁻¹,"949 VK1 gL11 gH1a (antibody, V domains shown, Humanised; human kappa constant (Km3)) VH: EVQLVQSGAEVKKPGASVKVSCKAFGYTFTTYPIEWMRQAHGQGLEWIGNFHPYNDDTKYNEKFKGRVTMTVDKSTTTVYMELSSLRSEDTAVYYCARENYGSHGGFVYWGQGTLVTVS VL: ENVLTQSPFSLSASVGDRVTITCRASSSVISSYLHWYQQKPAKAPKLWIYSTSNLASGVPDRFSGSGSGTSYTLTISSLQPEDFATYYCQQYNSYPLTFGGGTKVEIK"
3.71 nM,0.000782 s⁻¹,211000 M⁻¹ s⁻¹,"949 VK1 gL1 gH1a (antibody, V domains shown, Humanised; human kappa constant (Km3); Heavy V regions were cloned into gamma-4P (S241P), gamma-4P delta Lys and gamma-1 delta Lys vectors) VH: EVQLVQSGAEVKKPGASVKVSCKAFGYTFTTYPIEWMRQAHGQGLEWIGNFHPYNDDTKYNEKFKGRVTMTVDKSTTTVYMELSSLRSEDTAVYYCARENYGSHGGFVYWGQGTLVTVS VL: ENVLTQSPFSLSASVGDRVTITCRASSSVISSYLHWYQQKPAKAPKLWIYSTSNLASGVPDRFSGSGSGTSYTLTISSLQPEDFATYYCQQYNGYPLTFGGGTKVEIK"
4.75 nM,,,"949 VK1 gL14 gH8a (antibody, V domains shown, Humanised; human kappa constant (Km3)) VH: EVQLVQSGAEVKKPGASVKVSCKAFGYTFTTYPIEWMRQAHGQGLEWIGNFHPYNDDTKYNEKFKGRVTMTRDTSTSTVYMELSSLRSEDTAVYYCARENYGSHGGFVYWGQGTLVTVS VL: ENVMTQSPFSLSASVGDRVTITCRASSSVISSYLHWYQQKPAKAPKLFIYSTSNLASGVPSRFSGSGSGTDYTLTISSLQPEDFATYYCQQYNSYPLTFGGGTKVEIK"
2.66 nM,,,"949 VK1 gL9 gH20b (antibody, V domains shown, Humanised; human kappa constant (Km3); also called Transient #1) VH: EVQLVQSGAEVKKPGSSVKVSCKASGYTFTTYPIEWVRQAPGQGLEWMGNFHPYNDDTKYNEKFKGRVTITADKSTSTAYMELSSLRSEDTAVYYCARENYGSHGGFVYWGQGTLVTVS VL: ENVLTQSPFSLSASVGDRVTITCRASSSVISSYLHWYQQKPAKAPKLFIYSTSNLASGVPSRFSGSGSGTDYTLTISSLQPEDFATYYCQQYNGYPLTFGGGTKVEIK"
3.8 nM,,,"949 VK1 gL12 gH20b (antibody, V domains shown, Humanised; human kappa constant (Km3)) VH: EVQLVQSGAEVKKPGSSVKVSCKASGYTFTTYPIEWVRQAPGQGLEWMGNFHPYNDDTKYNEKFKGRVTITADKSTSTAYMELSSLRSEDTAVYYCARENYGSHGGFVYWGQGTLVTVS VL: ENVMTQSPFSLSASVGDRVTITCRASSSVISSYLHWYQQKPAKAPKLFIYSTSNLASGVPSRFSGSGSGTDYTLTISSLQPEDFATYYCQQYNGYPLTFGGGTKVEIK"
3.14 nM,0.00065 s⁻¹,207000 M⁻¹ s⁻¹,"949 VK3 gL1 gH1b (antibody, V domains shown, Humanised; human kappa constant (Km3)) VH: EVQLVQSGAEVKKPGSSVKVSCKAFGYTFTTYPIEWMRQAHGQGLEWIGNFHPYNDDTKYNEKFKGRVTITVDKSTTTVYMELSSLRSEDTAVYYCARENYGSHGGFVYWGQGTLVTVS VL: ENVLTQSPGTLSLSPGERATLSCRASSSVISSYLHWYQQKPGQAPRLWIYSTSNLASGVPDRFSGSGSGTSYTLTISRLEPEDFATYYCQQYNGYPLTFGGGTKVEIK"
2.92 nM,0.000556 s⁻¹,191000 M⁻¹ s⁻¹,"949 VK1 gL1 gH1b (antibody, V domains shown, Humanised; human kappa constant (Km3)) VH: EVQLVQSGAEVKKPGSSVKVSCKAFGYTFTTYPIEWMRQAHGQGLEWIGNFHPYNDDTKYNEKFKGRVTITVDKSTTTVYMELSSLRSEDTAVYYCARENYGSHGGFVYWGQGTLVTVS VL: ENVLTQSPFSLSASVGDRVTITCRASSSVISSYLHWYQQKPAKAPKLWIYSTSNLASGVPDRFSGSGSGTSYTLTISSLQPEDFATYYCQQYNGYPLTFGGGTKVEIK"
4.38 nM,,,"949 VK1 gL14 gH8b (antibody, V domains shown, Humanised; human kappa constant (Km3)) VH: EVQLVQSGAEVKKPGSSVKVSCKAFGYTFTTYPIEWMRQAHGQGLEWIGNFHPYNDDTKYNEKFKGRVTITADKSTSTAYMELSSLRSEDTAVYYCARENYGSHGGFVYWGQGTLVTVS VL: ENVMTQSPFSLSASVGDRVTITCRASSSVISSYLHWYQQKPAKAPKLFIYSTSNLASGVPSRFSGSGSGTDYTLTISSLQPEDFATYYCQQYNSYPLTFGGGTKVEIK"
3.38 nM,,,"949 VK1 gL12 gH20a (antibody, V domains shown, Humanised; human kappa constant (Km3)) VH: EVQLVQSGAEVKKPGASVKVSCKAFGYTFTTYPIEWVRQAPGQGLEWMGNFHPYNDDTKYNEKFKGRVTMTRDTSTSTVYMELSSLRSEDTAVYYCARENYGSHGGFVYWGQGTLVTVS VL: ENVMTQSPFSLSASVGDRVTITCRASSSVISSYLHWYQQKPAKAPKLFIYSTSNLASGVPSRFSGSGSGTDYTLTISSLQPEDFATYYCQQYNGYPLTFGGGTKVEIK"
2.77 nM,,,"949 VK1 gL12 gH8b (antibody, V domains shown, Humanised; human kappa constant (Km3)) VH: EVQLVQSGAEVKKPGSSVKVSCKAFGYTFTTYPIEWMRQAHGQGLEWIGNFHPYNDDTKYNEKFKGRVTITADKSTSTAYMELSSLRSEDTAVYYCARENYGSHGGFVYWGQGTLVTVS VL: ENVMTQSPFSLSASVGDRVTITCRASSSVISSYLHWYQQKPAKAPKLFIYSTSNLASGVPSRFSGSGSGTDYTLTISSLQPEDFATYYCQQYNGYPLTFGGGTKVEIK"
